Reference: IntAct's records for PubMed 29039417

B1: BBSome complex member BBS2 (Homo sapiens), Q9BXC9 (parent)
chain: MLLPVFTLKLRHKISPRMVAIGRYDGTHPCLAAATQTGKVFIHNPHTRNQHVSASRVFQSPLESDVSLLSINQAVSCLTAGVLNPELGYDALLVGTQTNLLAYDVYNNSDLFYREVADGANAIVLGTLGDISSPLAIIGGNCALQGFNHEGSDLFWTVTGDNVNSLALCDFDGDGKKELLVGSEDFDIRVFKEDEIVAEMTETEIVTSLCPMYGSRFGYALSNGTVGVYDKTSRYWRIKSKNHAMSIHAFDLNSDGVNELITGWSNGKVDARSDRTGEVIFKDNFSSAIAGVVEGDYRMDGHIQLICCSVDGEIRGYLPGTAEMRGNLMDTSAEQDLIRELSQKKQNLLLELRNYEENAKAELASPLNEADGHRGIIPANTRLHTTLSVSLGNETQTAHTELRISTSNDTIIRAVLIFAEGIFTGESHVVHPSIHNLSSSICIPIVPPKDVPVDLHLKAFVGYRSSTQFHVFESTRQLPRFSMYALTSLDPASEPISYVNFTIAERAQRVVVWLGQNFLLPEDTHIQNAPFQVCFTSLRNGGHLHIKIKLSGEITINTDDIDLAGDIIQSMASFFAIEDLQVEADFPVYFEELRKVLVKVDEYHSVHQKLSADMADHSNLIRSLLVGAEDARLMRDMKTMKSRYMELYDLNRDLLNGYKIRCNNHTELLGNLKAVNQAIQRAGRLRVGKPKNQVITACRDAIRSNNINTLFKIMRVGTASS
partner: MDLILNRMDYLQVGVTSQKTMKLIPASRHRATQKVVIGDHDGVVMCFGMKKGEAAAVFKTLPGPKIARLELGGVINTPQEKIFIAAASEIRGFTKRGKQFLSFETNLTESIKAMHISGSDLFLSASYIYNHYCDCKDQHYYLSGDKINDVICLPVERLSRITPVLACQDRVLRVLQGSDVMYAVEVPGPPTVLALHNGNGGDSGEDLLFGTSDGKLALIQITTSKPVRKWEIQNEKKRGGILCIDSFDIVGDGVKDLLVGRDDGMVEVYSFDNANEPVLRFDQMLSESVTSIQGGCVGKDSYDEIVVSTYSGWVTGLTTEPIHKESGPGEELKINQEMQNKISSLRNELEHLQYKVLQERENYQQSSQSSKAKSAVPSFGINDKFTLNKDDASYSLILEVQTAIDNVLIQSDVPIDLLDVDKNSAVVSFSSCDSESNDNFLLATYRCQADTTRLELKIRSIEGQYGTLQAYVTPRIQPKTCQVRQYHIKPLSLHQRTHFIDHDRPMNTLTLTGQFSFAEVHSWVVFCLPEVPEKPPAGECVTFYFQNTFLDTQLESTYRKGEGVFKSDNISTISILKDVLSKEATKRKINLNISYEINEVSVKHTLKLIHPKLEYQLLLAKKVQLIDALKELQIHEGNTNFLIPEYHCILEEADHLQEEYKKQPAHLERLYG

Variants of: B1
Conditions: with BBS7, Q8IWZ6-2

| Variant | effect of a mutation on the interaction |
| --- | --- |
| F418K | with no effect |
| H545K | disrupting interaction strength |
| H545A | with no effect |
| R413K | with no effect |
| A682K | with no effect |
| T475K | with no effect |
| E602K | with no effect |
| T666E | with no effect |
| Q527E | with no effect |
| Q527K | with no effect |
| A572K | with no effect |
| M637E | with no effect |
| C698A | with no effect |
| Q396E | with no effect |
| H431A | with no effect |
| N347A | with no effect |
| G515E | with no effect |
| S466A | with no effect |
| V453K | disrupting interaction strength |
| V453E | with no effect |
| D585E | with no effect |
| P521A | with no effect |
| S342A | with no effect |
| C442E | with no effect |
| Q468A | with no effect |
| M640A | with no effect |

| Variant | effect of a mutation on the interaction |
| --- | --- |
| Q677A | with no effect |
| V415K | with no effect |
| G375E | with no effect |
| S482K | with no effect |
| S493A | with no effect |
| S493K | with no effect |
| N692K | with no effect |
| V429E | with no effect |
| G392K | with no effect |
| G392E | with no effect |
| R635A | with no effect |
| R635E | with no effect |
| D562K | with no effect |
| S623E | with no effect |
| E591A | with no effect |
| S433K | with no effect |
| G683A | with no effect |
| S551K | with no effect |
| G421A | with no effect |
| I660A | with no effect |
| K609A | with no effect |
| L514K | with no effect |
| F518E | with no effect |
| N705K | with no effect |
| N705E | with no effect |
| T385E | disrupting interaction strength |

| Variant | effect of a mutation on the interaction |
| --- | --- |
| F472L | disrupting interaction strength |
| A674K | with no effect |
| K673E | with no effect |
| I377R | disrupting interaction strength |
| E401K | with no effect |
| V451A | with no effect |
| L593K | with no effect |
| M714E | with no effect |
| A379K | with no effect |
| T381K | with no effect |
| S488A | with no effect |
| R632A | with no effect |
| S465E | with no effect |
| I568A | with no effect |
| I568K | with no effect |
| V512K | with no effect |
| K360A | with no effect |
| K360P | disrupting interaction strength |
| M483A | with no effect |
| Y589A | with no effect |
| L455K | with no effect |
| L437A | with no effect |
| D330A | with no effect |
| A398E | with no effect |
| F531E | with no effect |
| R480K | with no effect |

| Variant | effect of a mutation on the interaction |
| --- | --- |
| R480E | with no effect |
| V430E | with no effect |
| I548A | with no effect |
| W513R | disrupting interaction strength |
| Y355K | with no effect |
| Y355A | with no effect |
| R353A | with no effect |
| L348K | with no effect |
| V588E | with no effect |
| E420K | with no effect |
| G542E | with no effect |
| G542K | with no effect |
| R652E | with no effect |
| N676K | with no effect |
| K547E | disrupting interaction strength |
| L668A | with no effect |
| L668E | with no effect |
| T386E | with no effect |
| L486K | with no effect |
| S407A | with no effect |
| S407E | with no effect |
| N354E | with no effect |
| Y484K | with no effect |
| V510K | disrupting interaction strength |
| S497A | with no effect |
| R594A | with no effect |

| Variant | effect of a mutation on the interaction |
| --- | --- |
| I554A | with no effect |
| H428E | with no effect |
| A333K | with no effect |
| Y463K | with no effect |
| Q532K | with no effect |
| H435E | with no effect |
| M634A | with no effect |
| E667A | with no effect |
| A615E | with no effect |
| K691E | with no effect |
| F575E | with no effect |
| F575A | with no effect |
| P366E | with no effect |
| V511K | with no effect |
| E357K | with no effect |
| H543A | with no effect |
| N393E | with no effect |
| L402C | disrupting interaction strength |
| D616K | with no effect |
| D579A | with no effect |
| K712A | with no effect |
| I556E | with no effect |
| N408A | with no effect |
| N408S | disrupting interaction strength |
| N517E | with no effect |
| L387A | with no effect |

| Variant | effect of a mutation on the interaction |
| --- | --- |
| T502A | with no effect |
| E646K | with no effect |
| R715A | with no effect |
| R715K | with no effect |
| F481E | disrupting interaction strength |
| V626E | with no effect |
| V626K | with no effect |
| S439K | with no effect |
| K689A | with no effect |
| T397E | with no effect |
| T397A | with no effect |
| S704K | with no effect |
| I496K | with no effect |
| I496E | with no effect |
| D649K | with no effect |
| I376E | with no effect |
| G670E | with no effect |
| H617A | with no effect |
| M571K | with no effect |
| H665E | with no effect |
| D613A | with no effect |
| N651K | with no effect |
| N651E | with no effect |
| Y658A | with no effect |
| T709K | with no effect |
| R476E | with no effect |

| Variant | effect of a mutation on the interaction |
| --- | --- |
| N619K | with no effect |
| L538A | with no effect |
| H373E | with no effect |
| D523E | with no effect |
| D523A | with no effect |
| A485E | with no effect |
| R382E | with no effect |
| A459K | disrupting interaction strength |
| Y603A | with no effect |
| L625K | with no effect |
| F460A | with no effect |
| N671A | with no effect |
| L383E | disrupting interaction strength |
| D336K | with no effect |
| R325A | with no effect |
| V446E | with no effect |
| L367K | with no effect |
| L367E | with no effect |
| R681K | with no effect |
| A419K | with no effect |
| G552K | with no effect |
| G552E | with no effect |
| S570K | with no effect |
| P447K | disrupting interaction strength |
